The target of experiment [1] is T1, endogenous CD9 on HeLa cells (human (endogenous in HeLa), UniProt P21926 1-228).
T1 chain: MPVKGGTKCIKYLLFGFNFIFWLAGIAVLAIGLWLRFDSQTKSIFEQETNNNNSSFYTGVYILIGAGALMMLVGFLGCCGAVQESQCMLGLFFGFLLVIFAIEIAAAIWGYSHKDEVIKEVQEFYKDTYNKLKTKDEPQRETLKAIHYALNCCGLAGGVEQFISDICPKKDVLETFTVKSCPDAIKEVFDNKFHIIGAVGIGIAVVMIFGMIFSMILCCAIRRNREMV
The experiment is described as follows: apparent, on HeLa cells.

Experiment [2] deals with T2, detergent-purified, full-length CD9 (wtCD9-3xSTREP) (human, UniProt P21926 1-228).
T2 chain: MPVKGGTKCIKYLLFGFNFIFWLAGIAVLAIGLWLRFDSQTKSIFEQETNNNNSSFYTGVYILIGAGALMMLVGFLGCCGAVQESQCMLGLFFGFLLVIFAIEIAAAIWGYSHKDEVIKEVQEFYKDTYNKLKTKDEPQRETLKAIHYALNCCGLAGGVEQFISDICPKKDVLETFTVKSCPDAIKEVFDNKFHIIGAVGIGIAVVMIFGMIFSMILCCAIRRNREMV
The experiment is described as follows: ELISA; apparent, detergent-purified CD9. For orientation: In an ELISA, binding on a coated surface is turned into a signal by an enzyme label.

In experiment [3] the target is T3, detergent-purified, full-length CD9 (wtCD9-3xSTREP) (human, UniProt P21926).
T3 construct: human CD9 (Tspan29), wild type, full length; The construct section lists full-length CD9 with an N-terminal Strep-II tag or an N-terminal Strep3-GFP tag with a TEV site; also called wtCD9-3Strep; source: detergent-purified
The experiment is described as follows: ELISA; 100 ng wtCD9-3Strep captured on Strep-Tactin coated wells; serial dilutions of nanobody for 2 h at rt in 2% BSA, 25 mM Hepes pH 7.5, 150 mM NaCl, 0.025% DDM; detection with anti-VHH and IRDye800CW; triplicate; apparent KD by one-site specific binding fit. As to conditions: both partners purified.

In experiment [4] the target is T4, CD9–EWI-F_(ΔIg1-5) complex (human, UniProt P21926;Q9P2B2).
T4 construct: human CD9 (Tspan29), wild type, full length; as m12; human EWI-F, residues T685-D879, UniprotKB Q9P2B2; as m11; Preformed complex to which 4C8 was added; source: HEK293-EBNA GNT1- cells, co-expressed, co-purified in digitonin (Strep-Tactin), EndoHF treated; not shown: Strep-II, N-terminal, kept; copies: 2 + 2
The experiment is described as follows: SEC; purified, EndoHF-treated CD9–EWI-F_(ΔIg1-5) complex incubated with a large excess of 4C8, Superdex 200 10/300 increase in 50 mM Tris pH 7.8, 150 mM NaCl, 0.08% digitonin, 4°C; SDS-PAGE of the peak. As to conditions: both partners purified. Background: In gel filtration, larger molecules generally elute earlier.

In experiment [5] the target is T5, endogenous CD9 on HeLa cells (human (endogenous in HeLa), UniProt P21926).
T5 construct: CD9 (Tspan29) endogenous on HeLa cells; also called CD9 endogenously expressed on HeLa cells; cell-membrane embedded CD9; source: endogenous, on HeLa cells
The experiment is described as follows: binding assay on cells in 96-well plates, infrared fluorescence read-out (anti-VHH, IRDye800CW, Odyssey); HeLa cells seeded in 96-well plates, serial dilutions of nanobody for 2 h at 4°C in 1% BSA, 25 mM Hepes pH 7.2 in DMEM; cells fixed with 4% formaldehyde before detection; triplicate; apparent KD by one-site specific binding fit. As to conditions: one partner purified.

For another experiment, the target named is T6, full-length EWI-F (human, UniProt Q9P2B2 26-879).
T6 construct: human EWI-F, full length, UniprotKB Q9P2B2; All EWI-F constructs were cloned with an N-terminal cystatin signal peptide; Heterogeneously glycosylated; also called CD9-partner 1; prostaglandin F2 receptor negative regulator; source: HEK293-EBNA cells, co-transfected with Strep3-GFP-CD9-W6; in lysate, co-purified (Strep-Tactin, SEC)
T6 sequence (looked up): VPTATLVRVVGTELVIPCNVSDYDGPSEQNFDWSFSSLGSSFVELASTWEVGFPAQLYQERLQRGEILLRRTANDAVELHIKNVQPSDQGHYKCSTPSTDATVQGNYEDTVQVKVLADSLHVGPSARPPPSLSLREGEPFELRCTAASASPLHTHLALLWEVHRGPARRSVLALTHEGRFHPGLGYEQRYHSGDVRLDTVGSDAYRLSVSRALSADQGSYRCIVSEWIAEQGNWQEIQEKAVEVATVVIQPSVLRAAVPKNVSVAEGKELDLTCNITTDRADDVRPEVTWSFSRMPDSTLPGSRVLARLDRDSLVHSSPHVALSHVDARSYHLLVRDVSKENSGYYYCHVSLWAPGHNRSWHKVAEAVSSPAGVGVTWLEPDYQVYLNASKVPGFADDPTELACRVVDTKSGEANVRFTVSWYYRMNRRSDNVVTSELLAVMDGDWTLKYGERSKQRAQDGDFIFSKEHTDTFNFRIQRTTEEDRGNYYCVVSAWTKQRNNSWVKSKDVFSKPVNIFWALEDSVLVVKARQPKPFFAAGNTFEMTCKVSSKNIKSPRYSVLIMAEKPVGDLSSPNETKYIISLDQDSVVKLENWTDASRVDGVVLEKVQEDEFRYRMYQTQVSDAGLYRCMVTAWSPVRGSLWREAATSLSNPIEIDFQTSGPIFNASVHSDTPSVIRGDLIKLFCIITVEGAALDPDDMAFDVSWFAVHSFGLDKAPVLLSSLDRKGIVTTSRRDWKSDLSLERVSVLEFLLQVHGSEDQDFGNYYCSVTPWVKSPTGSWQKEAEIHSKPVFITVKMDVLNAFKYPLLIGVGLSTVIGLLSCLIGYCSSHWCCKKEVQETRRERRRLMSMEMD
The experiment is described as follows: pull-down; Strep3-GFP-CD9-W6 co-transfected with EWI-F variants in 25 ml HEK293-EBNA cultures; lysis in 1% DDM, 0.5% digitonin; Strep-Tactin resin, washes in 0.08% digitonin, elution with desthiobiotin; SDS-PAGE. As to conditions: partners not purified.

The results in this text go back to paper PMC7536822, “Implications for tetraspanin-enriched microdomain assembly based on structures of CD9 with EWI-F” (Life Science Alliance, 2020).

B1: anti-CD9 nanobody 4C8 (VHH)
VHH: EVQLVESGGGLVQAGGSLRLSCAASGRTFSDYVMGWFRQAPGKERTFVARIGWSGDLTYYADSVKGRFTISRDNAKNTVYLQMNSLKPEDTAIYYCAADERWGTGGKFDYWGQGTQVTVSS
notes: they are in the deposited structures PDB 6Z1Z (4C8 alone) and PDB 6Z20 (nanobody chain of CD9EC2-4C8); Selected from a phage library (Neviani et al, 2020); The thrombin-cleavable His tag was removed with thrombin; also called Nb 4C8; source: E. coli BL-21 Codon Plus (DE3)-RIL, periplasmic secretion, purified (HisTrap, desalting; thrombin treatment, Superdex75); not shown: His6, C-terminal, cleaved
In the case of B1, the Kd in experiment [1] was found to be 0.59 nM; in experiment [2] it was 0.9 nM. For the same molecule, the binding result in experiment [3], in experiment [4] and in experiment [5] was “binds” in each case.

B2: anti-CD9 nanobody 4E8 (VHH)
VHH: EVQLVESGGRLVRTGGSLRLSCAASGRTFSNYVMGWFRQAPGKEREVVAAITWSGDITWHADFVKGRFTISRDNAKNTVYLQMNSLKPEDTAVYYCAATERWGLRAPADWGSWGQGTQVTVSS
notes: they are in the deposited structure PDB 6Z1V (nanobody chain of CD9EC2-4E8); Differs from 4C8 in CDR2 and CDR3; The thrombin-cleavable tag was not removed before crystallization; also called Nb 4E8; source: E. coli BL-21 Codon Plus (DE3)-RIL, periplasmic secretion, purified (HisTrap, desalting); not shown: His6, C-terminal, kept
For B2, the Kd in experiment [1] turned out to be 32.6 nM; in experiment [2], 2.01 nM. The binding result in experiment [3] and in experiment [5] was “binds” throughout.

B3: N-Strep3-GFP-tagged CD9-W6 (natural protein, human, UniProt P21926 1-228, looked up)
chain: MPVKGGTKWIKYLLFGFNFIFWLAGIAVLAIGLWLRFDSQTKSIFEQETNNNNSSFYTGVYILIGAGALMMLVGFLGWWGAVQESQWMLGLFFGFLLVIFAIEIAAAIWGYSHKDEVIKEVQEFYKDTYNKLKTKDEPQRETLKAIHYALNCCGLAGGVEQFISDICPKKDVLETFTVKSCPDAIKEVFDNKFHIIGAVGIGIAVVMIFGMIFSMILWWAIRRNREMV
notes: human CD9 (Tspan29), full length, all palmitoylated cysteines mutated to tryptophan (CD9-W6); The Strep3-GFP tag is followed by a TEV-protease site; The results speak only of 'Strep-GFP-tagged CD9'; the methods name CD9-W6 for these experiments; also called Strep-GFP-tagged CD9; source: HEK293-EBNA cells, co-transfected with EWI-F variants; in lysate (DDM or DDM/digitonin), Strep-Tactin purified, …
With B3, the binding result in the experiment with full-length EWI-F is “binds”.
